Numbering of substitutions follows the chain as printed. Where “and” joins values, the source holds several entries; their conditions need not be identical. Equal entries are not always repeated. Ends that are not written are not given here. * marks the point of attachment. Palmitoyl = CCCCCCCCCCCCCCCC(=O)*
B1: PGT121 Fab-K57 knob domain fusion protein (Fab)
heavy: QMQLQESGPGLVKPSETLSLTCSVSGASISDSYWSWIRRSPGKGLEWIGYVHKSGDTNYSPSLKSRVNLSLDTSKNQVSLSLVAATAADSGKYYCARTLHGRRIYGSENLYFQGSGCPPGYKSGVDCSPGSECKWGCYAVDGRRYGGYGADSGVENLYFQGSEWFTYFYMDVWGNGTQVTVSSASTKGPSVFPLAPSSKSTSGGTAALGCLVKDYFPEPVTVSWNSGALTSGVHTFPAVLQSSGLYSLSSVVTVPSSSLGTQTYICNVNHKPSNTKVDKRVEPKSCDKTLEENLYFQGSGGSHHHHHHHHHH
light: QSVLTQPPDISVAPGETARISCGEKSLGSRAVQWYQHRAGQAPSLIIYNNQDRPSGIPERFSGSPDSPFGTTATLTITSVEAGDEADYYCHIWDSRVPTKWVFGGGTTLTVLGQPKAAPSVTLFPPSSEELQANKATLVCLISDFYPGAVTVAWKADSSPVKAGVETTTPSKQSNNKYAASSYLSLTPEQWKSHRSYSCQVTHEGSTVEKTVAPTECS
B2: PGT121 Fab-K92 knob domain fusion protein (Fab)
heavy: QMQLQESGPGLVKPSETLSLTCSVSGASISDSYWSWIRRSPGKGLEWIGYVHKSGDTNYSPSLKSRVNLSLDTSKNQVSLSLVAATAADSGKYYCARTLHGRRIYGSENLYFQGVTCPEGWSECGVAIYGYECGRWGCGHFLNSGPNISPYVTTGSENLYFQGSEWFTYFYMDVWGNGTQVTVSSASTKGPSVFPLAPSSKSTSGGTAALGCLVKDYFPEPVTVSWNSGALTSGVHTFPAVLQSSGLYSLSSVVTVPSSSLGTQTYICNVNHKPSNTKVDKRVEPKSCDKTLEENLYFQGSGGSHHHHHHHHHH
light: B1 light
B3: PGT121 Fab-K149 knob domain fusion protein (Fab)
heavy: QMQLQESGPGLVKPSETLSLTCSVSGASISDSYWSWIRRSPGKGLEWIGYVHKSGDTNYSPSLKSRVNLSLDTSKNQVSLSLVAATAADSGKYYCARTLHGRRIYGSENLYFQGSCPDGFSYRSWDDFCCPMVGRCLAPRNGSENLYFQGSEWFTYFYMDVWGNGTQVTVSSASTKGPSVFPLAPSSKSTSGGTAALGCLVKDYFPEPVTVSWNSGALTSGVHTFPAVLQSSGLYSLSSVVTVPSSSLGTQTYICNVNHKPSNTKVDKRVEPKSCDKTLEENLYFQGSGGSHHHHHHHHHH
light: B1 light
B4: PGT121 Fab-K136 knob domain fusion protein (Fab)
heavy: QMQLQESGPGLVKPSETLSLTCSVSGASISDSYWSWIRRSPGKGLEWIGYVHKSGDTNYSPSLKSRVNLSLDTSKNQVSLSLVAATAADSGKYYCARTLHGRRIYGSENLYFQGTCPDNYREVDGCDPYDCCLTTWCTNSYCTRYIENLYFQGSEWFTYFYMDVWGNGTQVTVSSASTKGPSVFPLAPSSKSTSGGTAALGCLVKDYFPEPVTVSWNSGALTSGVHTFPAVLQSSGLYSLSSVVTVPSSSLGTQTYICNVNHKPSNTKVDKRVEPKSCDKTLEENLYFQGSGGSHHHHHHHHHH
light: B1 light
B5: K92 knob domain peptide, chemically synthesised, free energy method (Example 4) (peptide)
peptide: TCPEGWSECGVAIYGYECGRWGCGHFLNSGPNISPYVTTGS
modifications: disulfide (positions not given here); also: disulphides formed in glutathione redox buffer, pairing not given here
notes: Disulphides formed in glutathione redox buffer
B6: ultralong CDR-H3 of SEQ ID NO: 506 displayed on M13 phage (other)
chain: TTVHQQTQERCPDDYTDRGGCSIPYNCGGSRCCAYGRNGGYGGVSCSRTYEFYVN
notes: not shown: poly-histidine, c-myc tag, M13 pIII
B7: ultralong CDR-H3 of SEQ ID NO: 508 displayed on M13 phage (other)
chain: B6 chain with D14N, N26T
notes: as for B6
B8: ultralong CDR-H3 of SEQ ID NO: 502 displayed on M13 phage (other)
chain: B6 chain with N26T
notes: as for B6
B9: ultralong CDR-H3 of SEQ ID NO: 501 displayed on M13 phage (other)
chain: B6 chain with V44N, S45T, F52L, N55E
notes: as for B6
B10: ultralong CDR-H3 of SEQ ID NO: 500 displayed on M13 phage (other)
chain: B6 chain with V44I
notes: as for B6
B11: ultralong CDR-H3 of SEQ ID NO: 505 displayed on M13 phage (other)
chain: B6 chain with N38Y, G40D, V44I
notes: as for B6
B12: ultralong CDR-H3 of SEQ ID NO: 503 displayed on M13 phage (other)
chain: B6 chain with V44I, F52W, N55D
notes: as for B6
B13: ultralong CDR-H3 of SEQ ID NO: 504 displayed on M13 phage (other)
chain: B6 chain with N26S, G29D
notes: as for B6
B14: ultralong CDR-H3 of SEQ ID NO: 507 displayed on M13 phage (other)
chain: B6 chain with D14N, N26S, G29D
notes: as for B6
B15: ultralong CDR-H3 of SEQ ID NO: 499 displayed on M13 phage (other)
chain: TTVHQQTQKHCPDDDTDRDGCSRPDSRGGSGCGSYGRYGDQGGACCPLTYEFDV
notes: as for B6
B16: ultralong CDR-H3 of SEQ ID NO: 497 displayed on M13 phage (other)
chain: TTVHQKTTRQTSCPDGYIAGDSSCYRWRCRGNNCCKYGENRLLNYYDYTCVPYRDTYEWYVD
notes: as for B6
B17: hC3nb1-K57 loop 3 with C-terminal single-chain Fc tag (bispecific antibody, not shown: a dimerising Fc or GST)
VHH: QVQLVETGGGLVQAGGSLRLSCAASGSIFSLNAMGWFRQAPGKEREFVATINRSGGRTYYADSVKGSGGGSGCPPGYKSGVDCSPGSECKWGCYAVDGRRYGGYGADSGVSGGGSRFTISRDNGKNMVYLQMHSLKPEDTAIYYCAAGTGWSPQTDNEYNYWGQGTQVTVSS
notes: also called hC3Nb1 Loop 3
B18: K57 ultralong CDR-H3-hC3nb1 (bispecific antibody, not shown: a dimerising Fc or GST)
VHH: TTVHQRTIKSGCPPGYKSGVDCSPGSECKWGCYAVDGRRYGGYGADSGVGSTYTHEFYVDAWGQGSSSSGSSSSGQVQLVETGGGLVQAGGSLRLSCAASGSIFSLNAMGWFRQAPGKEREFVATINRSGGRTYYADSVKGRFTISRDNGKNMVYLQMHSLKPEDTAIYYCAAGTGWSPQTDNEYNYWGQGTQVTVSS
notes: tied to the label 'hC3Nb1 N-Term' on that ground; also called hC3Nb1 N-Term
B19: hC3nb1-K57 loop 2 with C-terminal single-chain Fc tag (bispecific antibody, not shown: a dimerising Fc or GST)
VHH: QVQLVETGGGLVQAGGSLRLSCAASGSIFSLNAMGWFRQAPSGGGSGCPPGYKSGVDCSPGSECKWGCYAVDGRRYGGYGADSGVSGGGSKEREFVATINRSGGRTYYADSVKGRFTISRDNGKNMVYLQMHSLKPEDTAIYYCAAGTGWSPQTDNEYNYWGQGTQVTVSS
notes: also called hC3Nb1 Loop 2

Target: T1, human complement component C5 (human, UniProt P01031 19-673; P01031 678-1676)
T1 construct: mature; Mature C5 is a disulphide-linked beta and alpha chain cut from one precursor; Terbium-labelled in the FRET assays, biotinylated in part of the phage ELISA; also called human C5; C5-Tb
T1 sequence (P01031 19-673 limits assumed, chain 1 of 2): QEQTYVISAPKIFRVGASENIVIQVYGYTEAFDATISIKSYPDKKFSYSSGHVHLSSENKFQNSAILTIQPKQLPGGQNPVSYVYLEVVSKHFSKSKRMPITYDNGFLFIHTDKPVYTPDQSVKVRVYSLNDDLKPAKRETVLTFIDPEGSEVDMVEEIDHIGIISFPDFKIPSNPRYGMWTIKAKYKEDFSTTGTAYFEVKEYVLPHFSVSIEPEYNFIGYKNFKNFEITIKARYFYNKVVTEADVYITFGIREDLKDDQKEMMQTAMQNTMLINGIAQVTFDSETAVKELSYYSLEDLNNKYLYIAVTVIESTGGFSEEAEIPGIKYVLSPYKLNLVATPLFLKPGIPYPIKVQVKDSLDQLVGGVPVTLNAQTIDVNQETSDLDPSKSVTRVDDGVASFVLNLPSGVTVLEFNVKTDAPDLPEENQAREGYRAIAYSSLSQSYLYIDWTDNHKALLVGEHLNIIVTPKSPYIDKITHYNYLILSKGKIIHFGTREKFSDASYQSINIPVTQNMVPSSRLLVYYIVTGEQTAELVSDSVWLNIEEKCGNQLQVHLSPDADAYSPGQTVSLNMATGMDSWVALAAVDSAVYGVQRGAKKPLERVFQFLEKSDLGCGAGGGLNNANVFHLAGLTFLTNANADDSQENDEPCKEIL
T1 sequence (P01031 678-1676 limits assumed, chain 2 of 2): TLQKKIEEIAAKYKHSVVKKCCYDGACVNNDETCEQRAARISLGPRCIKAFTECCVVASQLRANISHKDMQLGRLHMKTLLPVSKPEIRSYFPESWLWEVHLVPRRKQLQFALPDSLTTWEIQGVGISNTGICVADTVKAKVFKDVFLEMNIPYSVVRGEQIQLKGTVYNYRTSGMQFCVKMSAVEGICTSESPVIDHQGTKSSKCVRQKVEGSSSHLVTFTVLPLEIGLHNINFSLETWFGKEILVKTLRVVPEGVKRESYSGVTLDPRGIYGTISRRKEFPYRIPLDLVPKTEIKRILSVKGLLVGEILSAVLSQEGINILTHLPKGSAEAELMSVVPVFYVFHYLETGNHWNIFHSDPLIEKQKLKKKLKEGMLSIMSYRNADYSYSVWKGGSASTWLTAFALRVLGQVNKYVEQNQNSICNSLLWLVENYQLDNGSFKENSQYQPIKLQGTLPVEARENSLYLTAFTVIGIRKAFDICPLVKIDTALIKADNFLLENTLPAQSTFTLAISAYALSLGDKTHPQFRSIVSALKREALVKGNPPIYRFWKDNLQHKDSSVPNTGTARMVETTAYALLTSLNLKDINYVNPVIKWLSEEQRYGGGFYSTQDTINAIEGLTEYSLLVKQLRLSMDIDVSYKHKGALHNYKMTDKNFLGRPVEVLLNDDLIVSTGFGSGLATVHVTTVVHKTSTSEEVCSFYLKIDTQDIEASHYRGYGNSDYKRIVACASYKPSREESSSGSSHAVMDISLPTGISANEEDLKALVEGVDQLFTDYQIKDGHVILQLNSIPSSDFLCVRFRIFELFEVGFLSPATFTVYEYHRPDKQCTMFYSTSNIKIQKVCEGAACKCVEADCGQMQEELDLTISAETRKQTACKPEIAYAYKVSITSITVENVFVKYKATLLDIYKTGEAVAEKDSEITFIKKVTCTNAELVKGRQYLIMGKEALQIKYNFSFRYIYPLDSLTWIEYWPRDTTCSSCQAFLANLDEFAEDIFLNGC
Assay: SPR multi-cycle kinetics, human C5 immobilised, mean of n=3

Row | Binder | Kd | koff | kon
1 | cyclo(VCPDGFNWGYGCAAGSSRFCTRHDWCCYDERADSHTYGFCTGNRV) (also: disulphides formed by free energy method, pairing not given here, Head-to-tail cyclised K8chemFE) [K8 chemFE cyclic] | 28.5 nM | 0.00259 s⁻¹ | 94000 M⁻¹ s⁻¹
2 | Palmitoyl-GCPPGYKSGVDCSPGSECKWGCYAVDGRRYGGYGADSGVGS (also: disulphides formed by free energy method, pairing not given here) [K57chemFE-Palmitoyl] | 9.52 nM | 0.000477 s⁻¹ | 51100 M⁻¹ s⁻¹

Target: T1, human complement component C5
Assay: not given

Row | Binder | Kd | koff | kon
3 | B1 | 4.1 nM | 0.000132 s⁻¹ | 32300 M⁻¹ s⁻¹
4 | B2 | < 0.1 nM | < 2.93e-05 s⁻¹ | 28000 M⁻¹ s⁻¹
5 | B3 | 143 nM | 0.00162 s⁻¹ | 11300 M⁻¹ s⁻¹
6 | B4 | < 0.1 nM | < 1e-05 s⁻¹ | 9520 M⁻¹ s⁻¹

Target: T1, human complement component C5
Assay: cell-based or functional assay

Row | Binder | Alternative pathway C5b neoepitope ELISA, average Emax | Alternative pathway C5b neoepitope ELISA, geomean IC50
7 | B5 | 56.8% | 46.2 nM

Target: T1, human complement component C5
Assay: not given
Remark: another data set of the same source

Row | Binder | Kd
8 | B1 | 3.3 nM and 2.3 nM and 3.4 nM and 3 nM
9 | B2 | 19.3 nM and 7.7 nM and 11.3 nM and 11.9 nM
10 | B4 | 46.3 nM and 23.4 nM and 58.1 nM and 39.8 nM

Target: T2, mouse serum albumin (mouse, UniProt P07724 25-608)
T2 construct: also called MSA
Assay: monoclonal phage ELISA

Row | Binder | binding result
11 | B6 | binds
12 | B7 | binds
13 | B8 | binds
14 | B9 | binds
15 | B10 | binds
16 | B11 | binds
17 | B12 | binds
18 | B13 | binds
19 | B14 | binds
20 | B15 | binds
21 | B16 | binds

Target: rat serum albumin (rat, UniProt P02770 25-608)
Sequence (P02770 25-608 limits assumed): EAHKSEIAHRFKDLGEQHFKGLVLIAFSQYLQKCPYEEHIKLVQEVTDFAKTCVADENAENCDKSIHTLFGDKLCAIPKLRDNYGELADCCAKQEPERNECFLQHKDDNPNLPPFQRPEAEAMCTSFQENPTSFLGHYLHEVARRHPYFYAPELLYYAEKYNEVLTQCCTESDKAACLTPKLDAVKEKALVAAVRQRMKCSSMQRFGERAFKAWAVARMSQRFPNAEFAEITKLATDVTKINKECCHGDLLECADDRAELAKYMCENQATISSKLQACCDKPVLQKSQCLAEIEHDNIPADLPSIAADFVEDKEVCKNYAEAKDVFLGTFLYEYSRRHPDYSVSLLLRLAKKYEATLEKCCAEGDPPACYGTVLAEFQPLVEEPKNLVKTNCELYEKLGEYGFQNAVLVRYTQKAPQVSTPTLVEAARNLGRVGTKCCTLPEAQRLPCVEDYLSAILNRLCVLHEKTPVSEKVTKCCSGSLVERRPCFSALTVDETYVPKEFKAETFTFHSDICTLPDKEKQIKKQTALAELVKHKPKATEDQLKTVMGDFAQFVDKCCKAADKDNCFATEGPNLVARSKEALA
Assay: monoclonal phage ELISA

Row | Binder | binding result
22 | B6 | binds
23 | B7 | binds
24 | B8 | binds
25 | B9 | binds
26 | B10 | binds
27 | B11 | binds
28 | B12 | binds
29 | B13 | binds
30 | B14 | binds
31 | B15 | binds

Target: T1, human complement component C5
Assay: cell-based or functional assay
Remark: another data set of the same source

Row | Binder | Classical pathway C5b deposition ELISA, average Emax | Classical pathway C5b deposition ELISA, geomean IC50
32 | B5 | -33.9% | 6.6 nM

Target: T1, human complement component C5
Assay: SPR (Biacore), C5, mean of n=3

Row | Binder | Kd
33 | B17 | 0.596 nM
34 | B18 | 0.192 nM
35 | B19 | 0.321 nM

Target: T1, human complement component C5
Assay: SPR single-cycle kinetics, human C5, n=1

Row | Binder | Kd | koff | kon
36 | B5 | 0.643 nM | 0.000103 s⁻¹ | 160000 M⁻¹ s⁻¹

Target: T1, human complement component C5
Assay: not given
Remark: another data set of the same source

Row | Binder | Kd
37 | B1 | 4.9 nM and 3 nM and 3.4 nM and 3.7 nM
38 | B2 | 14 nM and 10.3 nM and 15.5 nM and 13.1 nM
39 | B3 | 34.9 nM and 57.6 nM and 30.1 nM and 39.3 nM
40 | B4 | 46.3 nM and 115 nM and 73 nM
